Patent publication US11370847B2, “Single domain antibodies directed against intracellular antigens” (Singh Biotechnology, LLC, priority 2014, dated 2022)
Values joined by “and” are separate entries in the source; they are usually repeats but may differ in a detail not shown here. Equal entries are not always repeated.

Legend:
MDA-MB-231 cells = assay: MTT proliferation assay, MDA-MB-231; format: cell-based, human; settings: for Mean: mean absorbance;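 on all read-outs here: proliferation of cultured human cancer cells read by MTT, with treated groups compared against a vehicle control group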
SIE-luc2P/HEK293 cells = assay: BCA protein concentration of reporter cells; format: cell-based
[1] = target: T1, active human TNF-α full length protein (Homo sapiens, UniProt P01375); assay: TNF-α binding ELISA; settings: for detection in coated versus non-coated wells: 0.5 μg/mL coating antigen, sdAb at 1 μg/mL; for detection in TNF-α ELISA: Experiment 1, 1 μg/mL sdAb; for OD450 Values: Non-Coated wells (non-specific binding), sdAb 1 μg/mL
T1 construct: active human TNF-α full length protein; purchased Abcam
T1 sequence (P01375 77-233 limits assumed): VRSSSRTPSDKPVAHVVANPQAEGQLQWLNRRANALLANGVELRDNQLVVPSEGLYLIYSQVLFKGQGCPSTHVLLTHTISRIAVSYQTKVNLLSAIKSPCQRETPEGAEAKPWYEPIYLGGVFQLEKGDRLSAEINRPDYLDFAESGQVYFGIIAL
Procedure: In this Example, the binding of anti-TNF-α sdAbs to active human TNF-α full length protein was assessed using an enzyme linked immunosorbent assay (ELISA) format. Additionally, the feasibility of utilizing a secondary antibody targeted to the his tag portion of the sdAbs was assessed.
The test articles for this study were anti-TNF-α VHH62 (SEQ ID NO:47) sdAb, TNF-α VHH66 (SEQ ID NO:45) sdAb, and anti-TNF-α VHH69 (SEQ ID NO:46) sdAb (Experiment 1).
For the assays to assess the binding of the sdAbs to TNF-α protein (Experiment 1, 4 and 5), a standard sandwich ELISA format was utilized. […] Plates were incubated overnight at 2-8° C. After the incubation, plates were washed (3×) and blocked (3% Bovine Serum Albumin (BSA) in Phosphate Buffered Saline (PBS)) for at least one hour at room temperature.
After removal of the blocking buffer and washing (3×), samples were added to the appropriate wells of the ELISA plates and incubated at room temperature with shaking (150 rpm) for at least one hour. The secondary antibody (rabbit anti-llama biotinylated antibody at either a1:5,000 or 10,000 dilution) was then added to each well and incubated with shaking for at least one hour at room temperature.
After the incubation with secondary antibody, the plates were again washed (3×) and horseradish peroxidase (HRP) at either a 1:25,000 or 1:50,000 dilution was added to each well. Plates were incubated with shaking for at least one hour at room temperature. A final wash (3×) was performed followed by the addition of TMB (Tetramethylbenzidine) substrate. After a 20 to 25 minute incubation at room temperature, stop solution was added to halt the colorimetric reaction. The absorbance at 450 nm was measured on a VersaMax instrument utilizing SoftMax Pro GxP version 5.4 software from Molecular Devices (Sunnyvale, Calif.).
The final experiment performed was to confirm that the results from the ELISA testing were due to binding to the TNF-α protein and not non-specific binding of the sdAb. For this determination, a comparison was made between wells coated with 0.5 μg/mL of coating antigen and non-coated wells. […] This experiment confirms that the detection seen with the previous experiments was due to the specific binding of the VHH to the coating antigen and not due to non-specific binding.

STAT3 = STAT3 reporter GloResponse SIE-luc2P/HEK293 assay, IL-6 induction; format: cell-based; settings: for effect on IL-6 induction of the STAT3 reporter: 24 and 48 hours treatment, VHH13 and VHH69 at highest concentration, VHH14 at both concentrations;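 on all read-outs here: SIE-luc2P/HEK293 reporter cells stimulated with IL-6 at 40 ng/mL (EC80) after pretreatment, luciferase luminescence (RLU) read the following day, triplicate wells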
[2] = test system: rabbit anti-llama biotinylated antibody or his-probe (H-3) biotin labeled antibody; assay: ELISA of secondary antibody binding to coated sdAbs; settings: Experiment 3, sdAb coated at 1 μg/mL, stored 1:100 dilution
Procedure: Two assays (Experiment 2 and 3) were performed to assess the binding of the secondary antibody to the sdAbs. A similar ELISA method was utilized except the sdAbs were directly coated onto the assay plate at a concentration of 1 μg/mL. Plates were incubated overnight at 2-8° C. After the incubation, plates were washed (3×) and blocked (3% BSA in PBS) for at least one hour at room temperature.
After removal of the blocking buffer and washing (3×), the secondary antibodies, either rabbit anti-llama biotinylated antibody or his-probe (H-3) biotin labeled antibody at was then added at a 1:5,000 dilution to each well and incubated with shaking for at least one hour at room temperature. Only the rabbit anti-llama biotinylated antibody was used in Experiment 2. Both antibodies were run in parallel in Experiment 3.
After the incubation with secondary antibody, the plates were again washed (3×) and HRP at a 1:50,000 dilution was added to each well. Plates were incubated with shaking for at least one hour at room temperature. One last wash (3×) was performed followed by the addition of TMB substrate and plates were incubated at room temperature. For the anti-llama biotinylated antibody stop solution was added to halt the colorimetric reaction at 10 minutes. The his-probe (H-3) biotin labeled antibody was allowed to incubate for 20 minutes prior to stopping. The absorbance at 450 nm was measured as before.

TNF-α = target: T2, TNF-α (Homo sapiens, UniProt P01375); assay: Inhibition of TNF-α cytotoxicity against U937 by anti-TNF-α VHHs; format: cell-based; settings: constant dose of TNF-α at EC50
T2 construct: purchased Sigma-Aldrich
T2 sequence (P01375 77-233 limits assumed): as above
Procedure: The concentration of TNF-α required to show measurable modulation of activity in the U937 human […] cell line was evaluated by quantitation of the ATP present, which signals the presence of metabolically active cells using Promega's Cell Titer-Glo® Luminescent Cell Viability assay.
The U937 cells were seeded in a clear polystyrene 96-well microculture plate (Corning® Costar® 96-well flat bottom plate, Cat. #3997) in a total volume of 90 μL/well. After 24 hours of incubation in a humidified incubator at 37° C. with 5% CO2 and 95% air, 5 μL of 20×, serially diluted TNF-α in growth medium was added to each well in duplicate (10 pt dose response, highest concentration 20 ng/mL). Additionally, 5 μL of 20×, diluted staurosporine in growth medium was added to each well in duplicate (concentration 1 nM).
After 24 hours of culture in the presence of test agents, the concentration of compound required to show measurable modulation of TNF-α activity in the U937 cell line as evaluated by quantitation of the ATP present. Percent cell growth was calculated relative to untreated control wells. All tests were performed in duplicate at each concentration level.
The EC50 value for the test agents was estimated using Prism 6.05 by curve-fitting the data using the following four parameter-logistic equation: […]

[3] = 24 Hour Treatment Prior to IL6 Induction, higher conc.: VHH13 55.8 μg/mL, VHH14 84.3 μg/mL, BB1608 4.16 μM, VHH69 50.5 μg/mL
[4] = 24 Hour Treatment Prior to IL6 Induction, lower conc.: VHH13, VHH14, VHH69 10 μg/mL, BB1608 2 μM
[5] = 48 Hour Treatment Prior to IL6 Induction, lower conc.: VHH13, VHH14, VHH69 10 μg/mL, BB1608 2 μM
[6] = 48 Hour Treatment Prior to IL6 Induction, higher conc.: VHH13 55.8 μg/mL, VHH14 84.3 μg/mL, BB1608 4.16 μM, VHH69 50.5 μg/mL
[7] = Rabbit anti-Llama Secondary Antibody

## MPT His Tag: SBT-100 produced by Microprotein Technologies, His tag preparation
MDA-MB-231 cells; MDA-MB-231
  inhibition compared with other SBT-100 preparations: greatest inhibition
MDA-MB-231 cells; MDA-MB-231, 50 μg/ml
  MTT absorbance, single replicates: 0.095 and 0.091 and 0.102 and 0.1 and 0.087 and 0.092
  Mean: 0.0945
MDA-MB-231 cells; MDA-MB-231, 100 μg/ml
  MTT absorbance, single replicates: 0.74 and 0.8 and 0.82
  Mean: 0.079

B1: anti-TNF-α VHH69: anti-TNF-α sdAb, SEQ ID NO:46 (protein)
VHH: EVQLVESGGGSVLAGGSLRLSCVASGFTSRYNYMAWFRQAPGKEREGVATIGTASGSADYYGSVKDRFTISQDNAKNTVYLQMNSLKPEDTAMYYCAARTYGTISLTPSDYRYWGQGTLVTVSS
modifications: Camelid
SIE-luc2P/HEK293 cells; [3]
  Protein concentration: 213
SIE-luc2P/HEK293 cells; [4]
  Protein concentration: 237
SIE-luc2P/HEK293 cells; [5]
  Protein concentration: 222
[1]
  detection in coated versus non-coated wells: detected in coated wells but not in non-coated wells
  detection in TNF-α ELISA: little to no detection
  OD450 Values: 0.007
STAT3; [3]
  Average RLU: 198596 RLU
  Average RLU with Media Blank: 198571 RLU
  Fold-Induction RLU/RLU of −IL6: 434
  Luminescence (replicate wells): 203139 RLU and 194320 RLU and 198330 RLU
STAT3; [4]
  Average RLU: 169752 RLU
  Average RLU with Media Blank: 169726 RLU
  Fold-Induction RLU/RLU of −IL6: 371
  Luminescence (replicate wells): 159115 RLU and 184364 RLU and 165776 RLU
STAT3
  effect on IL-6 induction of the STAT3 reporter: enhancement of the IL-6 induction
STAT3; [6]
  Average RLU: 225726 RLU
  Average RLU with Media Blank: 225694 RLU
  Fold-Induction RLU/RLU of −IL6: 452
  Luminescence (replicate wells): 219104 RLU and 237816 RLU and 220259 RLU
STAT3; [5]
  Average RLU: 172988 RLU
  Average RLU with Media Blank: 172955 RLU
  Fold-Induction RLU/RLU of −IL6: 347
  Luminescence (replicate wells): 155927 RLU and 191241 RLU and 171796 RLU
[2]; His-probe (H-3)
  OD450 Values: 0.153
[2]; [7]
  OD450 Values: 0.443
TNF-α
  inhibition of TNF-α killing of U937: inhibit killing of U937 by TNF-α

B2: anti-TNF-α VHH62: anti-TNF-α sdAb, SEQ ID NO:47 (protein)
VHH: QVQLVESGGGPVQAGETLRLSCTASGFTFAEADMGWYRQAPGHECELVSTITTEGITSEASSYYADSVRGRFTISRDNAKNMVYLQMNSLKPEDTAVYYCAPDPYAYSTYSDYCSWAQGTQGTLVTVSS
modifications: Camelid
[1]
  detection in coated versus non-coated wells: not detected in either coated or non-coated wells
  detection in TNF-α ELISA: little to no detection
  OD450 Values: −0.001
[1]; Experiment 4, original and new receipt, dilutions starting at 1 μg/mL
  OD450: < 0.2 OD450
[2]; His-probe (H-3)
  OD450 Values: 0.196
[2]; [7]
  OD450 Values: 2.341
TNF-α
  inhibition of TNF-α killing of U937: inhibit killing of U937 by TNF-α

B3: anti-STAT3 VHH14: second anti-STAT3 sdAb, SEQ ID NO:4 (protein)
VHH: QVQLVESGGGSVQAGGSLRLSCVASTYTGCMGWFRQAPGKEREGVAALSSRGFAGHYTDSVKGRFSISRDYVKNAVYLQMNTVKPEDAAMYYCAAREGWECGETWLDRTAGGHTYWGQGTLVTVSS
modifications: Camelid
STAT3
  effect on IL-6 induction of the STAT3 reporter: enhancement of the IL-6 induction
